What was measured:
Format in all cases: biochemical
[1] = test system: fusion protein pR58-GB; assay: kinetics of fusion protein pR58-GB cleavage by D32 mutants, anion triggered; conditions: 0.1M KPi; for Rate vs. [Cl]: pH 8.8, 23 C; for Rate vs. pH: 23 C
Text: Particularly advantageous are processing proteases whose activity is triggered on demand. Ions which have been useful as triggers are OH— (pH), Cl— and F—. The tables summarize cleavage rates of various D32 mutants as a function of specific anion.
Thus, S189 can be trigger to increase cleavage rates if desired and this can be very advantageous when required in a purification process. Once the fusion protein is bonded to the subtilisin variant to form a binding complex, the target protein can be cleaved from the prodomain protein by activation of the subtilisin variant with the introduction of an activating ion solution.

[2] = test system: pR58-GB; assay: binding and cleavage of pR58-GB on immobilized S189 matrix
Procedure: The binding and catalytic properties of processing subtilisin allows them to be used as both the affinity matrix and processing protease for purification of proteins tagged with the pR58 sequence.
An E. coli cell lysate containing pR58-GB was passed over the matrix containing immobilized S189. Cleavage of the bound fusion protein then was then effected either by addition of a triggering anion (e.g. 10 mM KF) or by extended incubation (e.g. 18 hours at pH 7.2) as shown in FIG. 6. After cleavage the pure, processed protein was washed off the matrix while the cognate prodomain remains tightly bound to subtilisin on the matrix. Multiple rounds of purification can be affected by stripping the pR58 from the S189 column at pH 2.1 and re-equilibrating the column at neutral pH. High stable and facile-folding mutants such as those listed in the Table 1 (FIG. 3) of Processing Subtilisin are required for column recycling.

[3] = test system: 671 (pR58FKAM-GB); assay: fluoride-triggered cleavage/elution of 671 fusion protein on S189HT1 column; conditions: cleavage/elution by 0.1M KF, FIG. 14
Procedure: (10 μl of 1 ml fraction 1; ˜7 μg total) • Lane 6: cleavage/elution by 0.1 M KF. (10 μl of 1 ml fraction 2; ˜3 μg total) • Lane 7: strip by 0.1 M H3PO4 (10 μl of 1 ml fraction 1; ˜10 μg total in both bands combined).

B1: S189: processing subtilisin with D32A mutation (protein, UniProt P00782 108-382, looked up, variant D32A)
Subtilisin BPN': AQSVPYGVSQIKAPALHSQGYTGSNVKVAVIASGIDSSHPDLKVAGGASMVPSETNPFQDNNSHGTHVAGTVAALNNSIGVLGVAPSASLYAVKVLGADGSGQYSWIINGIEWAIANNMDVINMSLGGPSGSAALKAAVDKAVASGVVVVAAAGNEGTSGSSSTVGYPGKYPSVIAVGAVDSSNQRASFSSVGPELDVMAPGVSIQSTLPGNKYGAYNGTSMASPHVAGAAALILSKHPNWTNTQVRSSLENTTTKLGDSFYYGKGLINVQAAAQ
[1]; pH 7.2, 23 C
  Rate: 0.18 h⁻¹
[1]; [Cl] 0 M
  Rate vs. [Cl]: 0.97 h⁻¹
[1]; [Cl] 0.5 M
  Rate vs. [Cl]: 5 h⁻¹
[1]; [F] 0 mM, pH 7.2, 23 C
  Rate vs. [F]: 0.003 min⁻¹
[1]; [F] 1 mM, pH 7.2, 23 C
  Rate vs. [F]: 0.018 min⁻¹
[1]; [F] 10 mM, pH 7.2, 23 C
  Rate vs. [F]: 0.14 min⁻¹
[1]; [F] 100 mM, pH 7.2, 23 C
  Rate vs. [F]: 0.8 min⁻¹
[1]; pH 5.7
  Rate vs. pH: 0.135 hr^−1
[1]; pH 7.2
  Rate vs. pH: 0.18 hr^−1
[1]; pH 8.8
  Rate vs. pH: 0.97 hr^−1
[1]; pH 10.0
  Rate vs. pH: 4 hr^−1
[2]; FIG. 5
  rate of binding to the prodomain: rapid
[2]; FIG. 6, a lag phase is evident
  half-time of cleavage: about four
[3]
  cleavage reaction complete: ~90%

Reference: patent publication US7824885B2, “Engineered proteases for affinity purification and processing of fusion proteins” (University of Maryland, College Park, priority 2003, dated 2010)
